The values that follow are results of earlier work, collected in patent USRE43135E1, “Method of improving dough and bread quality” (Danisco A/S, priority 2001, dated 2012).

For data set [1] the following is noted: enzyme expressed in a baculovirus system, Matos et al; cited from earlier work.
The conditions of data set [2]: Withers-Martinez et al; cited from earlier work.

Take “43 KDa protein from drought-stressed cowpea: galactolipid acyl hydrolase of Matos et al, expressed in a baculovirus system; amino acid sequence SEQ ID No. 1”: in data set [1], the “activity on triacylglycerol (triglyceride)” value is given as “no activity”, the “galactolipid acyl hydrolase activity” value is on record as “preferentially galactolipid acyl hydrolase activity” and the phospholipid activity entry is on record as “some phospholipid activity”.

B1: GPLRP2: guinea pig pancreatic lipase-related protein 2 (protein, UniProt P81139 1-434, looked up)
Pancreatic lipase-related …: AEVCYSHLGCFSDEKPWAGTSQRPIKSLPSDPKKINTRFLLYTNENQNSYQLITATDIATIKASNFNLNRKTRFIIHGFTDSGENSWLSDMCKNMFQVEKVNCICVDWKGGSKAQYSQASQNIRVVGAEVAYLVQVLSTSLNYAPENVHIIGHSLGAHTAGEAGKRLNGLVGRITGLDPAEPYFQDTPEEVRLDPSDAKFVDVIHTDISPILPSLGFGMSQKVGHMDFFPNGGKDMPGCKTGISCNHHRSIEYYHSSILNPEGFLGYPCASYDEFQESGCFPCPAKGCPKMGHFADQYPGKTNAVEQTFFLNTGASDNFTRWRYKVTVTLSGEKDPSGNINVALLGKNGNSAQYQVFKGTLKPDASYTNSIDVELNVGTIQKVTFLWKRSGISVSKPKMGASRITVQSGKDGTKYNFCSSDIVQENVEQTLSPC
In the case of B1, in data set [2], the “activity on galactolipids and phospholipids” value was “has activity on galactolipids and phospholipids”; the activity on triglyceride result is recorded as “reduced activity”.

B2: HPL: human pancreas lipase (protein, UniProt P16233 17-465, looked up)
Pancreatic triacylglycerol …: KEVCYERLGCFSDDSPWSGITERPLHILPWSPKDVNTRFLLYTNENPNNFQEVAADSSSISGSNFKTNRKTRFIIHGFIDKGEENWLANVCKNLFKVESVNCICVDWKGGSRTGYTQASQNIRIVGAEVAYFVEFLQSAFGYSPSNVHVIGHSLGAHAAGEAGRRTNGTIGRITGLDPAEPCFQGTPELVRLDPSDAKFVDVIHTDGAPIVPNLGFGMSQVVGHLDFFPNGGVEMPGCKKNILSQIVDIDGIWEGTRDFAACNHLRSYKYYTDSIVNPDGFAGFPCASYNVFTANKCFPCPSGGCPQMGHYADRYPGKTNDVGQKFYLDTGDASNFARWRYKVSVTLSGKKVTGHILVSLFGNKGNSKQYEIFKGTLKPDSTHSNEFDSDVDVGDLQMVKFIWYNNVINPTLPRVGASKIIVETNVGKQFNFCSPETVREEVLLTLTPC
B2: in data set [2], the activity on triglyceride entry is given as “only activity on triglyceride”.
